Measured values reported in patent US20180339057A1 (Novo Nordisk, published 2018).
Residue numbers refer to the chain shown, from its start. Names may count otherwise.

T1: human MIC-1 receptor (hGFRAL, GDNF family receptor alpha like), full length (human, UniProt Q6UXV0 19-394)
T1 sequence (looked up): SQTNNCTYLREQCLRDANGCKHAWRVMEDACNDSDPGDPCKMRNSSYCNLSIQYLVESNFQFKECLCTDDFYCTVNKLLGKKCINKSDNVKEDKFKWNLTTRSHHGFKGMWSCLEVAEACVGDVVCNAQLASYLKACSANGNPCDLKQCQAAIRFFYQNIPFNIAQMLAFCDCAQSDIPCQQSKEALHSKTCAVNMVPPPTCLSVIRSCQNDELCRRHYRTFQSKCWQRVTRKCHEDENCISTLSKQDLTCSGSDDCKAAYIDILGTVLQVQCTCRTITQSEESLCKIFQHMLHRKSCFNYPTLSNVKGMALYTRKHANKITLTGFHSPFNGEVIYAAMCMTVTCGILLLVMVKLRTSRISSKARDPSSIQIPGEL

B1: (SEPATSGSETPG)2-MIC-1-Δ1-3(M57L, M86L) (ligand)
chain: SEPATSGSETPGSEPATSGSETPGGDHCPLGPGRCCRLHTVRASLEDLGWADWVLSPREVQVTMCIGACPSQFRAANLHAQIKTSLHRLKPDTVPAPCCVPASYNPLVLIQKTDTGVSLQTYDDLLAKDCHCI
B2: SEPATSGSETPGTSESATPESGPGTSTEPSEG-MIC-1-Δ1-3 (ligand)
chain: SEPATSGSETPGTSESATPESGPGTSTEPSEGGDHCPLGPGRCCRLHTVRASLEDLGWADWVLSPREVQVTMCIGACPSQFRAANMHAQIKTSLHRLKPDTVPAPCCVPASYNPMVLIQKTDTGVSLQTYDDLLAKDCHCI
B3: A(GPEQGQEP)3-MIC-1-Δ1-3 (ligand)
chain: AGPEQGQEPGPEQGQEPGPEQGQEPGDHCPLGPGRCCRLHTVRASLEDLGWADWVLSPREVQVTMCIGACPSQFRAANMHAQIKTSLHRLKPDTVPAPCCVPASYNPMVLIQKTDTGVSLQTYDDLLAKDCHCI
B4: SEPATSGSETPGTSESATPESGPGTSTEPS-MIC-1-Δ1-3 (ligand)
chain: SEPATSGSETPGTSESATPESGPGTSTEPSGDHCPLGPGRCCRLHTVRASLEDLGWADWVLSPREVQVTMCIGACPSQFRAANMHAQIKTSLHRLKPDTVPAPCCVPASYNPMVLIQKTDTGVSLQTYDDLLAKDCHCI
B5: …-MIC-1-Δ1-3 (ligand)
chain: SEPATSGSETPGTSTEPSEGSAPGGDHCPLGPGRCCRLHTVRASLEDLGWADWVLSPREVQVTMCIGACPSQFRAANMHAQIKTSLHRLKPDTVPAPCCVPASYNPMVLIQKTDTGVSLQTYDDLLAKDCHCI
B6: (SEPATSGSETPG)2-MIC-1-Δ1-3 (ligand)
chain: B1 chain with L78M, L107M
B7: (SEPATSGSETPG)2-MIC-1-Δ1-3(M86L) (ligand)
chain: B1 chain with L78M
B8: (SEPATSGSETPG)2-MIC-1-Δ1-3(M57E) (ligand)
chain: B1 chain with L78E, L107M
B9: (SEPATSGSETPG)2-MIC-1-Δ1-3(M57L) (ligand)
chain: B1 chain with L107M
B10: MIC-1(R2A,N3E,A81E) (ligand)
chain: AAEGDHCPLGPGRCCRLHTVRASLEDLGWADWVLSPREVQVTMCIGACPSQFRAANMHAQIKTSLHRLKPDTVPAPCCVPESYNPMVLIQKTDTGVSLQTYDDLLAKDCHCI

biological target: T1, human MIC-1 receptor (hGFRAL, GDNF …); assay: cell-based or functional assay

Emax (%) | pERK EC50 (nM) | Binder
100 | 0.4 | B1
100 | 0.4 | B2
100 | 0.8 | B3
100 | 0.4 | B4
100 | 0.7 | B5
100 | 0.4 | B6
100 | 0.4 | B7
60 | 0.6 | B8
100 | 0.6 | B9
100 | 0.3 | B10
